The values below come from patent US20230071609A1 (Genentech, published 2023).

The target of assay [1] is T1, untagged APOL1-G0, KIK variant, transiently expressed (COS cells) (human, UniProt O14791 29-398).
T1 construct: Origene SC109941 clone with E150K, M228I, R255K
T1 chain: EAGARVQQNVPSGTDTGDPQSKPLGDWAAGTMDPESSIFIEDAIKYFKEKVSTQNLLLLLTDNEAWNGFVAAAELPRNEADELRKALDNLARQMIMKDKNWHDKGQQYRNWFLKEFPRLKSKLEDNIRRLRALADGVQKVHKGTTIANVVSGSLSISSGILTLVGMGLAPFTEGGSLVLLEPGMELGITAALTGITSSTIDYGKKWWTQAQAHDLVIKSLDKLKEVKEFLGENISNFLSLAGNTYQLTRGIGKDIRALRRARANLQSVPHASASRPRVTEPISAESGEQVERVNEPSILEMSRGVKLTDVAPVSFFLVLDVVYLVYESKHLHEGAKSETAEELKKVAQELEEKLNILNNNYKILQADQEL
As to the kind of experiment: immunofluorescence on transfected COS cells, 1 µg/ml; grade.

The next assay concerns the target T2, APOL6-myc-FLAG (human, UniProt Q9BWW8 1-343).
T2 construct: whole, on cells; In fixed, permeabilized transfected COS cells; untagged APOL6 in the western blots; not shown: C-terminal myc-FLAG tag
T2 sequence (looked up): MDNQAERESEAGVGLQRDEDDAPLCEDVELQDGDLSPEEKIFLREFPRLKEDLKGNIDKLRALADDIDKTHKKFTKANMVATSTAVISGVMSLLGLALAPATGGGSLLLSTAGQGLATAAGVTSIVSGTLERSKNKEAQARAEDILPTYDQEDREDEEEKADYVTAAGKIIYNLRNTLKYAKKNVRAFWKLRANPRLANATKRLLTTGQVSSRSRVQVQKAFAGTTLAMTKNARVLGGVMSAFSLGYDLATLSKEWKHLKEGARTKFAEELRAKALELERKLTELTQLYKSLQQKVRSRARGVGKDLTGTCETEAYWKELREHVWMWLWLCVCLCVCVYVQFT
As to the kind of experiment: immunofluorescence on transfected COS cells; grade. The source says: COS cells were transfected as in FIG. 31A except APOL1 and APOL2 were also C-terminally myc-FLAG tagged. Overlays of APOL with epitope tags: either mouse anti-FLAG-M2 or mouse anti-myc 9E10 for anti-APOL1 rabmabs; or rabbit anti-Myc 71D10 in conjunction with mouse anti-APOL1. Signals indicate the two antibodies overlap (i.e. anti-APOL1 cross-reacts with that APOL); signals (epitope tag only) indicate no cross-reactivity. Alexa647 anti-rabbit or mouse were used for the tags to rule out the possibility that any colocalization was a bleed-through artifact. Sparsely transfected areas were imaged to permit evaluation of background staining in adjacent untransfected cells—DAPI nuclear staining identifies both untransfected and transfected cell nuclei. […] Note that none of the antibodies cross-reacted with the more distantly related APOL6. *, APOL2-myc-FLAG is presumably misfolded, since it is not as cross-reactive as untagged APOL2 (compare FIG. 31A) with several antibodies. Commercial antibodies are Sigma HPA018885, Epitomics EPR2907 (2) (Epito) and Proteintech 11486-2-AP (Ptech).
Cells were plated on LabTekII (Nalge Nunc 154534) slides and fixed at 70-100% confluency. For mAb screening, cells were fixed/permeabilized for 5 min in −20° C. methanol (EMD MX0485-6). For all other experiments, cells were fixed in 3% paraformaldehyde in PBS (EMS 15710) for 20 mins at room temperature, quenched with 50 mM NH₄Cl in PBS for 10 mins, then permeabilized with 0.1% TX-100 in PBS for 4 mins or for 1h in saponin buffer [0.4% saponin (Sigma S7900), 1% bovine serum albumin (BSA; Sigma A2153), 2% fetal bovine serum (Seradigm) in PBS]. First antibodies (stored sterile at 4° C.) were applied for 1 h at room temperature, at 1 μg/ml for screening on transfected cells or at subsequently optimized concentrations for detecting endogenous APOL1. After 3×10 min washes in PBS (for Methanol or TX-100 protocols) or saponin buffer (saponin protocol), secondary antibodies were applied at 1.88 μg/ml for 1 h at room temperature, washed 3× and mounted under No. 1.5 coverslips in ProLong Gold with DAPI (4′,6-diamidino-2-phenylindole; Life Technologies P36931).

B1: antibody 3.1C1 (antibody, V domains shown)
VH: QVQLQQSGPELVKPGASVRISCKASGYTFTNYFIHWVKQRPGQGLEWIGWINPGNLNTKYTEEFKGKATLTADKSSSTAYIQLNSLTSEDSAVYFCVNGNPFVYWGQGTLVTVSA
VL: DIVMTQSPSSLTVIAGEKVTLNCKSSQSLLNSGNQKKYLTWLQQKPGQPPKLLIYWTSTRDSGVPDRFTGSGSGTDFTLTISSVQAEDLAVYYCQNDYSYPLTFGAGTKLEIKR
notes: Mouse mAb, cloned as murine IgG2a LALAPG; not written separately; also called SRA-ID mAb 3.1C1
As for B1, the binding result is “binds” in assay [1] and “no binding (tested: 1 µg/ml)” with APOL6-myc-FLAG.

B2: antibody 3.6E10 (antibody, V domains shown)
VH: QVQLQQSGAELAKPGASVKMSCKASGYIFTSYYLHWVKQRPGQGLEWIGYINPNTGYTEYTQNFKDRATLTADKSSSTAYMQLTSLTSEDSAVYFCVNGNPFVYWGQGTLVTVSA
VL: DIVMTQSPSSLTVTTGEKVTMTCRSSQSLLNSGNQKNYLTWFQQKPGQPPKLLIYWTSTRYSGVPDRFTGSGSGTDFTLTISSVQAEDLAVYYCQNDYSYPLTFGAGTKLEIKR
notes: Mouse mAb, cloned as murine IgG2a LALAPG
In the case of B2, the binding result was “binds” in assay [1] and “no binding (tested: 1 µg/ml)” with APOL6-myc-FLAG.

B3: antibody 3.7D6 (antibody, V domains shown)
VH: QIQLVQSGPDLKKPGETVKISCRTSGYAFTNYGVNWVKQAPGKGLKWMGWINTNTGQTTYAEEFRGRFAISLETSASTAFLTISNLKNEDSATYFCARLIYDGDYISSDFWGQGTTLTVSS
VL: DIQMTQSPDSLSASVGETVTITCGASENIYGALNWYQRKQGKSPQLLIYGATNLADGMSSRFSGSRSGRQYSLKISSLHPDDVATYYCQNALSMPYTFGGGTKLEIKR
notes: Mouse mAb, cloned as murine IgG2a LALAPG; those versions are not written separately; also called PFD antibody 3.7D6
Consider B3, for which the values for the binding result (in assay [1]; with APOL6-myc-FLAG) were “binds” and “no binding (tested: 1 µg/ml)”, respectively.

B4: antibody 4.17A5 (antibody, V domains shown)
VH: QVQLQQSGPELLKPGASVKISCKGSGYAFSNSWINWVKLRPGQGLEWIGRIYPGDGDTKYNGKFKGKATLTADKSSSTAHMQLRSLTSVDSAVYFCARFPFGKYEGPGAMDYWGQGTSVTVSS
VL: DIQMTQTTSSLSASLGDRVTISCRASQDISSYLNWYQQKPDGTIKLLIYYTSRLHSGVPSRFSGSGSGTDFSLTISNLEQEDIATYFCQQGNTLPYTFGGGTKLEIKR
notes: Mouse mAb (Method #4), cloned as murine IgG2a LALAPG; also called mAb 4.17A5
Turning to B4, the binding result in assay [1] is given as “binds”; in the assay with APOL6-myc-FLAG it was “no binding (tested: 1 µg/ml)”.

B5: antibody 3.6D12 (antibody, V domains shown)
VH: EVMLVESGGGLVRPGGSLKLSCTASGFTFSRCAMSWVRQTPEKRLEWVSAISRDSTYTYYSDSVKGRFTVSRDNAKNTLYLQMSSLRSEDTAMYYCARQIDDYYVDALDYWGQGTSVTVSS
VL: DVQITQSPSYLAASPGETITINCRASKIISKYLAWYQEKPGKTIKLLIYSGFTLQSGIPSRFSGSGSGTDFTLTISSLEPEDFAMYYCQQHNEYPLTFGAGTKLEIKR
notes: Mouse mAb (Method #3), cloned as murine IgG2a LALAPG; Early screens used hybridoma-purified antibody; also called mAb 3.6D12
On to B5, for which the binding result in assay [1] was “binds”; with APOL6-myc-FLAG, “no binding (tested: 1 µg/ml)”.

B6: rabbit monoclonal antibody 5.17D12 (antibody, V domains shown)
VH: QSLEESGGDLVKPGASLTLTCTASGFSFSSNYYMCWVRQAPGKGLEWIACVYVGSGGSTYYASWAKGRFTFSKTSSTTWTLQMTSLTAADTATYFCARDLSYAGDLWGPGTLVTVSS
VL: DPVMTQTPASVSEPVGGTVTINCQASESISSYLAWYQQKPGQPPKLLIYGASNLASGVPSRFKGSGSGTEYTLTISDLECDDAATYYCQSAYYSNSGGHAFGGGTEVVVKG
notes: Rabbit mAb (Method #5), recombinant; also called rabmab 5.17D12
With B6, the binding result is reported as “binds” in assay [1] and “no binding (tested: 1 µg/ml)” with APOL6-myc-FLAG.

B7: antibody 4.12E5 (antibody, V domains shown)
VH: EVQLQQSGPELVKTGASVKISCKASGYSFTGYFMHWVKQSHGKSLEWIGYISCYNGASVYNQRFKGKATFTIDTSSSTAYMQFNSLTSEDSAVYYCARDVLRYPRYAVDYWGQGTSVTVSS
VL: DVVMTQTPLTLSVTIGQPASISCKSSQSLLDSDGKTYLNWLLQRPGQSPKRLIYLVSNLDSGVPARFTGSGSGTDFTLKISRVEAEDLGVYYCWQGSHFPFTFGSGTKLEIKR
notes: as for B2
Take B7: in assay [1], the binding result was “binds”.
